Consider two molecules from publication PMC5374410, “Identification of a Potent Allosteric Inhibitor of Human Protein Kinase CK2 by Bacterial Surface Display Library Screening” (Pharmaceuticals, 2017).

B2: recombinant human protein kinase CK2 holoenzyme coupled to fluorescein isothiocyanate (FITC) (complex)
chain 1: MSGPVPSRARVYTDVNTHRPREYWDYESHVVEWGNQDDYQLVRKLGRGKYSEVFEAINITNNEKVVVKILKPVKKKKIKREIKILENLRGGPNIITLADIVKDPVSRTPALVFEHVNNTDFKQLYQTLTDYDIRFYMYEILKALDYCHSMGIMHRDVKPHNVMIDHEHRKLRLIDWGLAEFYHPGQEYNVRVASRYFKGPELLVDYQMYDYSLDMWSLGCMLASMIFRKEPFFHGHDNYDQLVRIAKVLGTEDLYDYIDKYNIELDPRFNDILGRHSRKRWERFVHSENQHLVSPEALDFLDKLLRYDHQSRLTAREAMEHPYFYTVVKDQARMGSSSMPGGSTPVSSANMMSGISSVPTPSPLGPLAGSPVIAAANPLGMPVPAAAGAQQ
chain 2: not shown
modifications: FITC covalently coupled to the holoenzyme, sites not stated | FITC covalently coupled to the holoenzyme, sites not stated
notes: catalytic subunit CK2α of human protein kinase CK2; regulatory subunit CK2β of human protein kinase CK2; FITC-labelled in the flow cytometry; also called CK2-FITC; fluorophore coupled CK2; source: E. coli BL21(DE3), purified (protocol of Grankowski et al. with modifications), FITC labeling Kit (Calbiochem); copies: 2 + 2

For assay [1], the target named is B2. Put plainly: cell-based or functional assay.
The target in assay [2] is B2. Put plainly: cell-based or functional assay. This is another data set of the same source.
Assay [3] deals with human CK2α, catalytic subunit alone (unlabelled) (human, UniProt P68400 1-391). Put plainly: cell-based or functional assay.
The target of assay [4] is T1, human αS1-casein (170 aa) displayed on E. coli UT5600(DE3) by autodisplay (plasmid pKP10) (human, UniProt P47710 16-185).
T1 construct: human αS1-casein as autodisplay passenger, 510 nt, 170 aa as printed; Passenger between the cleaved signal peptide of the autotransporter precursor and the linker; also called full-length αS1-casein; not shown: AIDA-I autotransporter linker and β-barrel, C-terminal, kept
T1 sequence (looked up): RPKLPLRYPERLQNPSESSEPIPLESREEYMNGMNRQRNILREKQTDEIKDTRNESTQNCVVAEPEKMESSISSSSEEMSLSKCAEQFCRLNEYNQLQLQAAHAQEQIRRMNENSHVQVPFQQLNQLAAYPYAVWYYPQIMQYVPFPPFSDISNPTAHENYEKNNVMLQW
Nature of the assay: flow cytometry on cells; E. coli UT5600(DE3) cells displaying the passenger by autodisplay incubated with fluorescein-coupled CK2 holoenzyme for 30 min at 37 °C in 50 mM Tris/HCl pH 7.4, 100 mM NaCl, 10 mM MgCl2, 1 mM DTT, 200 µM ATP; washed; excitation 488 nm, 527/30 nm filter; host strain without plasmid as control. As to conditions: one partner purified.

B1: peptide B2 (free synthetic peptide) (peptide)
peptide: DCRGLIVMIKLH
Turning to B1, the “IC50 of inhibition of the kinase activity of (unlabelled) CK2 holoenzyme, CE assay with substrate peptide …” value in assay [1] was 800 nM. Moreover, the “Ki, taken as equal to the IC50 of the CE kinase assay (non-competitive inhibition with α = 1)” value in assay [2] is 800 nM. Further, in assay [3], the “IC50 of inhibition of the kinase activity of the catalytic subunit CK2α alone, CE assay” value was 800 nM.
B2: the “fold fluorescence intensity over control cells” value in assay [4] was determined as 10 fold.
